Experimental data published in publication PMC4805542.

Test system: ZF6-DB (synthetic construct)
Test: EMSA
Conditions: 1.5 uM protein, DNA titrated 145-250 nM; apparent Kd, Scatchard; 6.25 mM MgCl2; 25 mM Hepes pH 7.9, 50 mM KCl, 6.25 mM MgCl2, 1% Nonidet P-40, 5% glycerol; 15 min on ice; 5% PAGE in 0.5x TBE at 4 C

hRHO 65 bp duplex oligonucleotide
Kd: 41.9 nM
